These results are taken from paper PMC12675543 (Nature Communications, 2025).

Experiment in all cases: SPR; biotinylated p62 constructs or His-MBP immobilised on streptavidin sensor chips (520-700 RU); VHHp62 injected in serial dilution; 50 mM Tris, 150 mM NaCl, 1 mM TCEP, 0.05% Tween-20, pH 7.4, 25 °C; kinetic 1:1 model
What all share (conditions): both partners purified
In general terms: SPR reads the build-up and loss of mass on a sensor chip optically.

In assay [1] the target is T1, His-MBP-p62(85-440)-Avi (Homo sapiens, UniProt Q13501, biotinylated).
T1 construct: also called immunogen; p62 lacking essential parts of the PB1 domain; source: recombinant; not shown: His, N-terminal, kept; MBP, N-terminal, kept; Avi, C-terminal, kept

In assay [2] the target is T2, p62(387-446)-Avi (Homo sapiens, UniProt Q13501, biotinylated).
T2 construct: p62 (SQSTM1), human, UBA domain, printed as residues 387-446; SPR construct; also called p62UBA; p62 ubiquitin associated domain; source: E. coli BL21 (DE3), purified (IMAC, 3C cleavage, SEC); not shown: His-MBP, N-terminal, cleaved; Avi, C-terminal, kept

Assay [3] has as its target T3, p62(122-181)-Avi (Homo sapiens, UniProt Q13501, biotinylated).
T3 construct: p62 (SQSTM1), human, ZZ domain, residues 122-181; also called p62ZZ; p62 ZZ domain; source: E. coli BL21 (DE3), purified (IMAC, 3C cleavage, SEC); not shown: His-MBP, N-terminal, cleaved; Avi, C-terminal, kept

The target in assay [4] is T4, His-MBP-avi (Escherichia coli K12 (assumed), UniProt P0AEX9 = MBP, biotinylated).
T4 construct: Control surface protein in SPR; also called His-MBP tag; not shown: His, N-terminal, kept; Avi, C-terminal, kept

B1: VHHp62-His (6C10) (VHH)
VHH: EVQLVESGGGLVQPGGSLRLSCVASGFTFSNYWMYWVRQAPGKGLEWVSTINTGSGAAYYTSSVKGRFTISRDNAKNTLYLQMNSLKSEDTAVYYCATDLRGAQRGQGTQVTVSS
notes: anti-p62 VHH from immunised llamas, phage display clone 6C10; the AlphaFold2 model of VHHp62 had 121 residues; also called VHH 6C10; p62 single-domain antibody; source: Pichia pastoris (Komagataella phaffii), secreted, purified (IMAC, desalting); not shown: His, C-terminal, kept
As usually defined, the Kd is the constant that tells how readily two partners part at equilibrium. A high value points to weaker binding. Regarding B1, the results for the Kd in assay [1] and in assay [2] were 11 nM and 36 nM, respectively. Besides, the binding result in assay [3] and in assay [4] was “no binding” throughout.
